{
  "source": "paper PMC11417181",
  "about": "“The SCR-17 and SCR-18 glycans in human complement factor H enhance its regulatory function” (The Journal of Biological Chemistry, 2024)",
  "binders": {"B1": {"name": "SCR-17H, glycosylated single-domain fragment of complement factor H expressed in Pichia pastoris (domain or fragment)", "chain": "IKTDCLSLPSFENAIPMGEKKDVYKAGEQVTYTCATYYKMDGASN(glycan)VTCINSRWTGRPTCRDTS", "modifications": "reading uncertain; also: N-linked hyperglycosylation (Pichia) at Asn1011, recombinant protein"}, "B2": {"name": "SCR-17/18H, glycosylated two-domain fragment of complement factor H expressed in Pichia pastoris (domain or fragment)", "chain": "IKTDCLSLPSFENAIPMGEKKDVYKAGEQVTYTCATYYKMDGASNVTCINSRWTGRPTCRDTSCVNPPTVQNAYIVSRQMSKYPSGERVRYQCRSPYEMFGDEEVMCLNGNWTEPPQCKDST", "modifications": "Pichia hyperglycosylated N-linked glycans (Man8-18GlcNAc2) at Asn1011 and Asn1077"}, "B3": {"name": "SCR-16/20, glycosylated five-domain C-terminal fragment of complement factor H expressed in Pichia pastoris (domain or fragment)", "chain": "EGLPCKSPPEISHGVVAHMSDSYQYGEEVTYKCFEGFGIDGPAIAKCLGEKWSHPPSCIKTDCLSLPSFENAIPMGEKKDVYKAGEQVTYTCATYYKMDGASNVTCINSRWTGRPTCRDTSCVNPPTVQNAYIVSRQMSKYPSGERVRYQCRSPYEMFGDEEVMCLNGNWTEPPQCKDSTGKCGPPPPIDNGDITSFPLSVYAPASSVEYQCQNLYQLEGNKRITCRNGQWSEPPKCLHPCVISREIMENYNIALRWTAKQKLYSRTGESVEFVCKRGYRLSSRSHTLRTTCWDGKLEYPTCAKR", "modifications": "Pichia hyperglycosylated N-linked glycans at Asn1011 and Asn1077"}, "B4": {"name": "SCR-16/20 deglycosylated with PNGase F (domain or fragment)", "chain": "B3 chain", "modifications": "N-linked glycans at Asn1011 and Asn1077 removed with PNGase F"}, "B5": {"name": "complement factor H, native glycosylated, full-length, purified from human plasma (natural protein, UniProt P08603 19-1231, looked up)", "chain": "EDCNELPPRRNTEILTGSWSDQTYPEGTQAIYKCRPGYRSLGNVIMVCRKGEWVALNPLRKCQKRPCGHPGDTPFGTFTLTGGNVFEYGVKAVYTCNEGYQLLGEINYRECDTDGWTNDIPICEVVKCLPVTAPENGKIVSSAMEPDREYHFGQAVRFVCNSGYKIEGDEEMHCSDDGFWSKEKPKCVEISCKSPDVINGSPISQKIIYKENERFQYKCNMGYEYSERGDAVCTESGWRPLPSCEEKSCDNPYIPNGDYSPLRIKHRTGDEITYQCRNGFYPATRGNTAKCTSTGWIPAPRCTLKPCDYPDIKHGGLYHENMRRPYFPVAVGKYYSYYCDEHFETPSGSYWDHIHCTQDGWSPAVPCLRKCYFPYLENGYNQNYGRKFVQGKSIDVACHPGYALPKAQTTVTCMENGWSPTPRCIRVKTCSKSSIDIENGFISESQYTYALKEKAKYQCKLGYVTADGETSGSITCGKDGWSAQPTCIKSCDIPVFMNARTKNDFTWFKLNDTLDYECHDGYESNTGSTTGSIVCGYNGWSDLPICYERECELPKIDVHLVPDRKKDQYKVGEVLKFSCKPGFTIVGPNSVQCYHFGLSPDLPICKEQVQSCGPPPELLNGNVKEKTKEEYGHSEVVEYYCNPRFLMKGPNKIQCVDGEWTTLPVCIVEESTCGDIPELEHGWAQLSSPPYYYGDSVEFNCSESFTMIGHRSITCIHGVWTQLPQCVAIDKLKKCKSSNLIILEEHLKNKKEFDHNSNIRYRCRGKEGWIHTVCINGRWDPEVNCSMAQIQLCPPPPQIPNSHNMTTTLNYRDGEKVSVLCQENYLIQEGEEITCKDGRWQSIPLCVEKIPCSQPPQIEHGTINSSRSSQESYAHGTKLSYTCEGGFRISEENETTCYMGKWSSPPQCEGLPCKSPPEISHGVVAHMSDSYQYGEEVTYKCFEGFGIDGPAIAKCLGEKWSHPPSCIKTDCLSLPSFENAIPMGEKKDVYKAGEQVTYTCATYYKMDGASNVTCINSRWTGRPTCRDTSCVNPPTVQNAYIVSRQMSKYPSGERVRYQCRSPYEMFGDEEVMCLNGNWTEPPQCKDSTGKCGPPPPIDNGDITSFPLSVYAPASSVEYQCQNLYQLEGNKRITCRNGQWSEPPKCLHPCVISREIMENYNIALRWTAKQKLYSRTGESVEFVCKRGYRLSSRSHTLRTTCWDGKLEYPTCAKR", "modifications": "eight N-linked biantennary complex-type glycans, among them those at Asn1011 (SCR-17) and Asn1077 (SCR-18)", "notes": "human complement factor H, 20 SCR domains, Tyr402 form; For the SPR self-association experiment the immobilised copy was biotinylated (EZ-Link Biotinylation kit) and captured on a streptavidin chip; the copy in solution was not labelled; also called CFH; native CFH"}, "B6": {"name": "fully deglycosylated complement factor H (200 h PNGase F) (natural protein, human, UniProt P08603 19-1231, looked up)", "chain": "B5 chain", "modifications": "N-linked glycans removed with PNGase F: eight, seven, six or five removed, leaving none, one, two or three glycans", "notes": "Mixture of forms with none to three glycans left; also called fully deglycosylated CFH; CFH-De; source: purified from human plasma, then PNGase F for 200 h at 37 °C, gel filtration"}, "B7": {"name": "partially deglycosylated complement factor H (100 h PNGase F) (natural protein, human, UniProt P08603 19-1231, looked up)", "chain": "B5 chain", "modifications": "N-linked glycans partly removed with PNGase F: forms with three to six glycan chains were present", "notes": "Mixture of glycoforms; also called partially deglycosylated CFH; CFH partially glycosylated; source: purified from human plasma, then PNGase F for 100 h at 37 °C, gel filtration"}, "B8": {"name": "SCR-16/18H, glycosylated three-domain fragment of complement factor H expressed in Pichia pastoris (domain or fragment)", "chain": "EGLPCKSPPEISHGVVAHMSDSYQYGEEVTYKCFEGFGIDGPAIAKCLGEKWSHPPSCIKTDCLSLPSFENAIPMGEKKDVYKAGEQVTYTCATYYKMDGASNVTCINSRWTGRPTCRDTSCVNPPTVQNAYIVSRQMSKYPSGERVRYQCRSPYEMFGDEEVMCLNGNWTEPPQCKDST", "modifications": "Pichia hyperglycosylated N-linked glycans at Asn1011 and Asn1077"}, "B9": {"name": "SCR-16/18H deglycosylated with PNGase F (domain or fragment)", "chain": "B8 chain", "modifications": "N-linked glycans at Asn1011 and Asn1077 treated with PNGase F (the paper suggests that removal may have been impeded)"}, "B10": {"name": "SCR-18H, glycosylated single-domain fragment of complement factor H expressed in Pichia pastoris (domain or fragment)", "chain": "RDTSCVNPPTVQNAYIVSRQMSKYPSGERVRYQCRSPYEMFGDEEVMCLNGN(glycan)WTEPPQCKDST", "modifications": "reading uncertain; also: N-linked hyperglycosylation (Pichia) at Asn1077, recombinant protein"}},
  "key": {"[1]": {"biological_target": "the molecule itself", "assay": "AUC; sedimentation velocity of the SCR fragments, 20 °C, 50,000 rpm, Hepes buffer (10 mM Hepes, 137 mM NaCl, pH 7.4), c(s) analysis in SEDFIT, proportions of monomer and dimer from peak integration; monomer to dimer"}, "[2]": {"biological_target": "the molecule itself", "assay": "AUC; sedimentation velocity of the SCR fragments, 20 °C, 50,000 rpm, Hepes buffer (10 mM Hepes, 137 mM NaCl, pH 7.4), c(s) analysis in SEDFIT, proportions of monomer and dimer from peak integration; monomer to dimer", "remark": "listed apart in the source"}, "complement C3b": {"biological_target": "T1, complement C3b (human, UniProt P01024 23-667; P01024 749-1663, free thiol group in C3b blocked with iodoacetamide (the paper does not say on which chain))", "T1 construct": "Amine-coupled to a CM5 chip in the SPR experiment", "T1 sequence (P01024 23-667, chain 1 of 2)": "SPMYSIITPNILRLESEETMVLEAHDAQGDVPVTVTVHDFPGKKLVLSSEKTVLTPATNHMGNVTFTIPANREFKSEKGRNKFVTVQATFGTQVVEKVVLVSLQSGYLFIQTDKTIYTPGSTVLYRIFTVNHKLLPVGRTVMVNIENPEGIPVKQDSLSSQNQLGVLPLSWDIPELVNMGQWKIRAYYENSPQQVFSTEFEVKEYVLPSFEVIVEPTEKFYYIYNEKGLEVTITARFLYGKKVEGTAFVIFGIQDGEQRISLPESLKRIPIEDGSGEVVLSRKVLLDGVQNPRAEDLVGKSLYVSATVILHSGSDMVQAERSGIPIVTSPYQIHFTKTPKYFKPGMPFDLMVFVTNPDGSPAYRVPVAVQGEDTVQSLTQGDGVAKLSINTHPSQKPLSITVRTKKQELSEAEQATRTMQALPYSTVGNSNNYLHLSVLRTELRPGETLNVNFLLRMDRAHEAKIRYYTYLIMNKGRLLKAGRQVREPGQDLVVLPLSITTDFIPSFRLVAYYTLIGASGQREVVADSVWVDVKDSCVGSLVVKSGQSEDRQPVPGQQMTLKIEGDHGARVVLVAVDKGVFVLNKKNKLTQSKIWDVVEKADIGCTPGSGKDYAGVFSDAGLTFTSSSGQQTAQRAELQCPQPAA", "T1 sequence (P01024 749-1663, chain 2 of 2)": "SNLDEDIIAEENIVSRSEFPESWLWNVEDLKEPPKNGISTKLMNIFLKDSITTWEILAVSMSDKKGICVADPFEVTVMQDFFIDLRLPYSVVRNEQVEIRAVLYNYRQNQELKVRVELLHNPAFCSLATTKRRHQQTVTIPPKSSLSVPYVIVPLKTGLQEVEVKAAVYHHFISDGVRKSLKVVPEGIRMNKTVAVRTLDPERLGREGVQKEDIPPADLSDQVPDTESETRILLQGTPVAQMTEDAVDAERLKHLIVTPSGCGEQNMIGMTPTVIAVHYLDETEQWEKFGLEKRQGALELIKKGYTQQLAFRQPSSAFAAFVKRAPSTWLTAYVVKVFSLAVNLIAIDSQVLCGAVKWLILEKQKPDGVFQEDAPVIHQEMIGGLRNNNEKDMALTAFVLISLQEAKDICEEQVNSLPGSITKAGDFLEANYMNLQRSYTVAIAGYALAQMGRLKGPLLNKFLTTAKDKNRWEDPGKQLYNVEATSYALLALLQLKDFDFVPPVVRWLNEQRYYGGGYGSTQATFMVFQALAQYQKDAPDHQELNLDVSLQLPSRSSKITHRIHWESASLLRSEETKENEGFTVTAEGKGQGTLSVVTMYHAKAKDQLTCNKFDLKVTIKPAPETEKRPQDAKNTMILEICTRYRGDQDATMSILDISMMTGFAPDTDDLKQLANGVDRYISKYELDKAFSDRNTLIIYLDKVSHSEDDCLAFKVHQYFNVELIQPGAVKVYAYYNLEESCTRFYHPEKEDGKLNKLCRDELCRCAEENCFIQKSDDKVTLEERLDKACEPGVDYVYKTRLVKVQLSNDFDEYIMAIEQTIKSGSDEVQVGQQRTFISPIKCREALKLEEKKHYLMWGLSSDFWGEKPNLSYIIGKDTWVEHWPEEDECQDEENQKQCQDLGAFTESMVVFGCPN", "assay": "SPR; Biacore X100, C3b amine-coupled to a CM5 chip, CFH preparations flowed at 0.05 to 7.75 μM, 25 °C, Hepes buffer with 0.005% Tween20, single-cycle, 1:1 steady-state affinity fit", "details": "both partners purified"}},
  "note": "glycan = not defined here",
  "data": [
    {"binder": "B1", "values": [
      {"measurement": "stoichiometry N", "setting": "[1]", "result": 2},
      {"measurement": "proportion of dimer", "setting": "[2]", "result": 67, "unit": "%"}
    ]},
    {"binder": "B2", "values": [
      {"measurement": "stoichiometry N", "setting": "[1]", "result": 2},
      {"measurement": "proportion of dimer", "setting": "[2]", "result": 72, "unit": "%"}
    ]},
    {"binder": "B3", "values": [
      {"measurement": "stoichiometry N", "setting": "[1]", "result": 2},
      {"measurement": "proportion of dimer", "setting": "[2]", "result": 8, "unit": "%"}
    ]},
    {"binder": "B4", "values": [
      {"measurement": "stoichiometry N", "setting": "[1]", "result": 2},
      {"measurement": "proportion of dimer", "setting": "[2]", "result": 2, "unit": "%"}
    ]},
    {"binder": "B5", "values": [
      {"measurement": "Kd", "setting": "complement C3b", "result": "900 ± 60", "unit": "nM"}
    ]},
    {"binder": "B6", "values": [
      {"measurement": "Kd", "setting": "complement C3b", "result": "3780 ± 450", "unit": "nM"}
    ]},
    {"binder": "B7", "values": [
      {"measurement": "Kd", "setting": "complement C3b", "result": "2530 ± 420", "unit": "nM"}
    ]},
    {"binder": "B8", "values": [
      {"measurement": "stoichiometry N", "setting": "[1]", "result": 2},
      {"measurement": "proportion of dimer", "setting": "[2]", "result": 78, "unit": "%"}
    ]},
    {"binder": "B9", "values": [
      {"measurement": "stoichiometry N", "setting": "[1]", "result": 2},
      {"measurement": "proportion of dimer", "setting": "[2]", "result": 63, "unit": "%"}
    ]},
    {"binder": "B10", "values": [
      {"measurement": "stoichiometry N", "setting": "[1]", "result": 2},
      {"measurement": "proportion of dimer", "setting": "[2]", "result": 57, "unit": "%"}
    ]}
  ]
}
